Test results: paper PMC3328272, “HIV-1 Nef interaction influences the ATP-binding site of the Src-family kinase, Hck” (BMC Chemical Biology, 2012)

B1: wild-type human Hck SH3 domain (domain or fragment)
chain: not shown
notes: also called hHck SH3; source: E. coli BL21(DE3)pLysS, purified (anion exchange, IMAC, size-exclusion chromatography)
B2: wild-type mouse Hck SH3 domain (domain or fragment, UniProt P08103 76-136, looked up)
chain: SEDTIVVALYDYEAIHREDLSFQKGDQMVVLEEAGEWWKARSLATKKEGYIPSNYVARVNS
notes: also called mHck SH3; mSH3; source: E. coli BL21(DE3)pLysS, purified (anion exchange, IMAC, size-exclusion chromatography)

Target: T1, HIV-1 Nef-SF2, untagged (HIV-1 (SF2), UniProt P03407)
T1 construct: also called Nef (B-clade allele SF2); source: E. coli, purified without N-terminal His tag (anion exchange HiPrep Q FF, gel filtration Superdex 75)
Assay: SPR
Conditions: both partners purified

T1 sequence (P03407 whole entry): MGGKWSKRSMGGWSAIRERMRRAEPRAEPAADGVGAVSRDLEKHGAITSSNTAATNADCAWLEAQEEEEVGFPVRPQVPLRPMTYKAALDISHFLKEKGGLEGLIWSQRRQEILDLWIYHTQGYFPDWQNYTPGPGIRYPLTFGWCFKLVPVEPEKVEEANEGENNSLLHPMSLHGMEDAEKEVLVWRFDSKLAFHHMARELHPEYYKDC

Row | Binder | Kd [nM] | koff [s⁻¹] | kon [M⁻¹ s⁻¹]
1 | B1 | 70 ± 10 | 0.0118 ± 0.04 | 160000 ± 0.06
2 | B2 | 130 ± 30 | 0.07 ± 0.36 | 554000 ± 1.77
